B1: G20 unlabeled (ssDNA)
DNA: GGGCTGGCGCGGAGGGAGGG
B2: Biotin-G20 (ssDNA)
DNA: GGGCTGGCGCGGAGGGAGGG

Assays:
[1] = target: T1, HIS-CNBP (Homo sapiens, UniProt P62633 1-177); test: competition; unlabeled G20 competes with biotin-G20; Chemiluminescent EMSA Kit (Thermo) binding buffer, room temperature, 20 min, 5% polyacrylamide gel; salt and pH not stated; conditions: protein: recombinant; tags: His (pET-28a); potential G4
[2] = target: T1, HIS-CNBP; test: EMSA; Chemiluminescent EMSA Kit (Thermo) binding buffer, room temperature, 20 min, 5% polyacrylamide gel; salt and pH not stated; conditions: protein: recombinant; tags: His (pET-28a); potential G4

T1 sequence (P62633 whole entry): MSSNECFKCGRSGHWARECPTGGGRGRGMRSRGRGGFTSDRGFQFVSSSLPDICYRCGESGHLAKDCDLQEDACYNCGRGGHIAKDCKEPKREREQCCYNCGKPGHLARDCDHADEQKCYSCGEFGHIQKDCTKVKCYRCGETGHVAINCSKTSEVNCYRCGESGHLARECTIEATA

Row | Binder | binding result [1] | binding result [2]
1 | B1 | binds | 
2 | B2 |  | binds
